# Reference: patent publication US20200340016
# Key:
# Experiment in all cases: cell_activity
# [1] = system: ZFN pair 30035 / 30054 (AAVS1) (artificial)
# [2] = system: ZFN pair 30035 / 30054 ELD_KKR_I479T I479T (FokI, both ZFNs) (artificial)
# [3] = system: ZFN pair 30035 / 30054 ELD_KKR_K525A K525A (FokI, both ZFNs) (artificial)
# [4] = system: ZFN pair 30035 / 30054 ELD_KKR_K525P K525P (FokI, both ZFNs) (artificial)
# [5] = system: ZFN pair 30035 / 30054 ELD_KKR_Q481E Q481E (FokI, both ZFNs) (artificial)
# [6] = system: ZFN pair 30035 / 30054 ELD_KKR_R416D R416D (FokI, both ZFNs) (artificial)
# [7] = system: ZFN pair 30035 / 30054 ELD_KKR_R416E R416E (FokI, both ZFNs) (artificial)
# [8] = system: ZFN pair 52742-ELD / 52774-KKR K387S K387S (FokI of 52774) (artificial); conditions: 400 ng mRNA
# [9] = system: ZFN pair 52742-ELD / 52774-KKR K525S K525S (FokI of 52774) (artificial); conditions: 400 ng mRNA
# [10] = system: ZFN pair 52742-ELD / 52774-KKR R416S R416S (FokI of 52774) (artificial); conditions: 400 ng mRNA
# [11] = system: ZFN pair 52742-ELD R422S / 52774-KKR R422S (FokI of 52742) (artificial); conditions: 400 ng mRNA
# [12] = system: ZFN pair 52742-ELD R447S / 52774-KKR R447S (FokI of 52742) (artificial); conditions: 400 ng mRNA
# [13] = system: ZFN pair 52742-F1RQ;F3RQ;F5RQ / 52774 R(-5)Q in F1, F3 and F5 of 52742 (artificial); conditions: 6 ug dose
# [14] = system: ZFN pair SBS52742-ELD / SBS52774-KKR (TRAC) (artificial)
# [15] = system: ZFN pair SBS51857-ELD / SBS51949-KKR (BCL11A) (artificial)
# [16] = system: ZFN pair SBS51857-ELD / SBS51949-KKR R416S R416S (FokI of 51949) (artificial)
# [17] = system: ZFN pair SBS51857-ELD / SBS51949-KKR K448S K448S (FokI of 51949) (artificial); conditions: 60 ug/mL each mRNA
# [18] = system: ZFN pair SBS51857-ELD / SBS51949-KKR K525S K525S (FokI of 51949) (artificial); conditions: 60 ug/mL each mRNA
# [19] = system: ZFN pair SBS51857-ELD / SBS51949-KKR R447S R447S (FokI of 51949) (artificial); conditions: CD34+ cells, near background
# [20] = system: ZFN pair SBS63014 / SBS65526 (3x R-5Q / 4x R-5Q + FokI R416S) three and four finger R(-5)Q; FokI R416S in 65526 (artificial); conditions: 60 ug dose
# [21] = system: ZFN pair SBS63014 / SBS65527 (3x R-5Q / 5x R-5Q + FokI R416S) three and five finger R(-5)Q; FokI R416S in 65527 (artificial); conditions: 60 ug dose; no evidence of cleavage
# [22] = system: ZFN pair SBS63014 / SBS65721 (3x R-5Q / 3x R-5Q + FokI R416S) three finger R(-5)Q in each ZFN; FokI R416S in 65721 (artificial); conditions: 60 ug dose
# [23] = CD34+ cells, 2 ug mRNA each ZFN
substance,measurement,setting,value
AAVS1 intended target,activity,[1],57.8 % indels
same,activity,[2],52.5 % indels
same,activity,[3],73.8 % indels
same,activity,[4],0.01 % indels
same,activity,[5],69.9 % indels
same,activity,[6],70.6 % indels
same,activity,[7],91.1 % indels
CCATATGCAGAAAACAGAAACTGTACCCCTTCCTTACACC (double strand) [off-target XSKWTVWD (OT16)],activity,[8],3.12 % indels
same,activity,[9],0.96 % indels
same,activity,[10],0.74 % indels
same,activity,[11],1.18 % indels
same,activity,[12],0.32 % indels
same,activity,[13]; parent 19.16,1.43 % indels
same,activity,[14]; 400 ng mRNA each ZFN,7.39 % indels
CCGGAGAGAAGGCTCCGGTTCAGCACTGAGATCAGGACGG (double strand) [off-target KXWACMTR (OT3)],activity,[13]; parent 1.59,0.19 % indels
same,activity,[14]; 6 ug dose,1.59 % indels
CCTACCCCCACCACCTCACCTTCCCTCAGCCTTGTGTTTCAGCCCCAGTTAGCTGCCCTTAGTTGCTGATGTATTG (double strand) [off-target GJZEIYTO (OT2)],activity,[15]; 60 ug/mL each mRNA,2.81 % indels
same,activity,[16]; 60 ug/mL each mRNA,0.31 % indels
CTTCCTGCGGGGTTTTGTGCAAATAACCCATGCTCGGGAGCGAGGCCCTGGGAAGGAGTATCTCGCTTCTTTGGGT (double strand) [off-target NIFMAEVG (OT1)],activity,[15]; [23],9.04 % indels
same,activity,[17]; parent 21.96,8.9 % indels
same,activity,[18]; parent 21.96,0.89 % indels
same,activity,[16]; [23],0.75 % indels
same,activity,[19],0.05 % indels
same,activity,[20],0.17 % indels
same,activity,[21],0.03 % indels
same,activity,[22]; parent 28.0,0.55 % indels
GACTCATTCATCCACTCATTCTGAGCACTTGCTGCACACTAGGCCCTGGGCTGGGGCTTCAGCCCAGGAGTTCACT (double strand) [off-target ZJCRPAXW (OT4)],activity,[15]; 60 ug/mL each mRNA,1.12 % indels
same,activity,[16]; 60 ug/mL each mRNA,0.65 % indels
TCAGTGATTGGGTTCCGAATCCTCCTCCTGAAAGTGGCCG (double strand) [TRAC intended target JBSCKVMP],activity,[8],89.1 % indels
same,activity,[9],88.3 % indels
same,activity,[10],87.1 % indels
same,activity,[11],89 % indels
same,activity,[12],70.3 % indels
same,activity,[13]; parent 62.59,70 % indels
same,activity,[14]; 400 ng mRNA each ZFN,90.7 % indels
TCCTCCATGCTCAGAAAGCCTTTCTTGGAGCCAGGCACACAGGAAATGTTAGCTAGTTAGCATTGGCTCTAATACT (double strand) [off-target PEVYOHIU (OT3)],activity,[15]; [23],0.65 % indels
same,activity,[17],4.4 % indels
same,activity,[18],0.13 % indels
same,activity,[16]; [23],0.08 % indels
same,activity,[19],0.03 % indels
same,activity,[20]; no evidence of cleavage,0.02 % indels
same,activity,[21],0.02 % indels
same,activity,[22]; parent 4.77,0.04 % indels
TGGCCCTTTGCAGAAAAGGTTGTTGAACCCTACCGTAAAC (double strand) [off-target XVFENVRX (OT11)],activity,[8],3.27 % indels
same,activity,[9],0.79 % indels
same,activity,[10],0.93 % indels
same,activity,[11],1.09 % indels
same,activity,[12],0.14 % indels
same,activity,[13]; parent 4.32,0.47 % indels
same,activity,[14]; 400 ng mRNA each ZFN,5.82 % indels
